Assay results: patent publication US20140072613A1 (published 2014)

What was measured:
Test in all cases: cell-based or functional assay
GRK6(h) = GRK6(h) (human, UniProt P43250 1-576)
MST2(h) = molecular target: T1, MST2(h) (human, UniProt Q13188 1-491)
T1 sequence (looked up): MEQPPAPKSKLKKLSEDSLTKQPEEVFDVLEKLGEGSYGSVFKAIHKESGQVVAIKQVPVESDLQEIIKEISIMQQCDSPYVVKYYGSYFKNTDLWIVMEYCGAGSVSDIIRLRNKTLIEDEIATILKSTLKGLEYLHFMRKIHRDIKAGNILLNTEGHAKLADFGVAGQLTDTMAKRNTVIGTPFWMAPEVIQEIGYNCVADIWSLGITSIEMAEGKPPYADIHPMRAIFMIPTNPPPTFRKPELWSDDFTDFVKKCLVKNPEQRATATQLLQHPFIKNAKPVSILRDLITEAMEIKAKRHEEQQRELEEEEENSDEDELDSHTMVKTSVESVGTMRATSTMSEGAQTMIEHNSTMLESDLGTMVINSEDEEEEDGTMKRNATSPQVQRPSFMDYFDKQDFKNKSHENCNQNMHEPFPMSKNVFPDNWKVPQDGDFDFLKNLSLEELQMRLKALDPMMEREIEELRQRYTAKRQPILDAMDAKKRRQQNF

MuSK(h) = molecular target: T2, MuSK(h) (human, UniProt O15146 517-869, limits assumed)
T2 sequence (looked up): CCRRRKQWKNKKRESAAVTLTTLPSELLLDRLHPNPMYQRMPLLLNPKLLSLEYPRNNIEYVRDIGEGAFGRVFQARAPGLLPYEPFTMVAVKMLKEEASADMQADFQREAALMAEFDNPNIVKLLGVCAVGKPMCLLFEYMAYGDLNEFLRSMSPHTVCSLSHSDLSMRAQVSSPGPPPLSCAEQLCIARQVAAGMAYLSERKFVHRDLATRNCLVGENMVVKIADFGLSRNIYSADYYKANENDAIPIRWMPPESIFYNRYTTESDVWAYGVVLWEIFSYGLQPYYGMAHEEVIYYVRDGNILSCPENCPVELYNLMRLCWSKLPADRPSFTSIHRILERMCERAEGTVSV

BrSK2(h) = molecular target: T3, BrSK2(h) (human, UniProt Q8IWQ3 1-736, limits assumed)
T3 sequence (looked up): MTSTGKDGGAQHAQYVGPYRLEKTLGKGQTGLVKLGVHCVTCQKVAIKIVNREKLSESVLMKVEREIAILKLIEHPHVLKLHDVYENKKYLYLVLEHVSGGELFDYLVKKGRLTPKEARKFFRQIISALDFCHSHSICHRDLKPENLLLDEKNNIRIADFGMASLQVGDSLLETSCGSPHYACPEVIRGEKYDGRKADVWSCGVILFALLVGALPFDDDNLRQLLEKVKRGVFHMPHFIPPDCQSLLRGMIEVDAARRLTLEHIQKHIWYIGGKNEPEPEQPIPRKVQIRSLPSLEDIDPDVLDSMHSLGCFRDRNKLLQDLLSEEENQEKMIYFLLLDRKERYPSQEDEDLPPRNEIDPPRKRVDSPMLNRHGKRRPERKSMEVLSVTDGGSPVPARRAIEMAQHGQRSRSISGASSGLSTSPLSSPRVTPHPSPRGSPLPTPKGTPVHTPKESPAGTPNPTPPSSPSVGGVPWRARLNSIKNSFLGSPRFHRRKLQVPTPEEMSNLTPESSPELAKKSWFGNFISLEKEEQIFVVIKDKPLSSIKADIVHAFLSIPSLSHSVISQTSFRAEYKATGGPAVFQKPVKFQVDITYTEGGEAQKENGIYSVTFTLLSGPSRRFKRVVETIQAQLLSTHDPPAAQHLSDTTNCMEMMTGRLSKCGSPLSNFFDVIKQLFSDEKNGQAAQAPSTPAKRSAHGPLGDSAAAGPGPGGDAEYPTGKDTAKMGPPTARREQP

TSSK1(h) = molecular target: T4, TSSK1(h) (human, UniProt Q9BXA7 1-367)
T4 sequence (looked up): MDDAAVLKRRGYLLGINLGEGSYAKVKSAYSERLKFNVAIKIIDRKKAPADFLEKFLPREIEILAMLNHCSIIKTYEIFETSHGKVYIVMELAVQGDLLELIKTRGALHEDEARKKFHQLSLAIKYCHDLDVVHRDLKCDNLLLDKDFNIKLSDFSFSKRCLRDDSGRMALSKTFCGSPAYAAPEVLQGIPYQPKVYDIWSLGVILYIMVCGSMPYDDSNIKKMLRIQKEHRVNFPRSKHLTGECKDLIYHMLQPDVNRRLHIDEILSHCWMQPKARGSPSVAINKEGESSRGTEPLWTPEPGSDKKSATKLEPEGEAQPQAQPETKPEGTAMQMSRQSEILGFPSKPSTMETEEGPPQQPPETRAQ

CDK9/cyclin T1(h) = CDK9/cyclin T1(h) (human, UniProt P50750 1-372; O60563 1-726, limits assumed)
Sequence of CDK9/cyclin T1(h) (P50750 whole entry, chain 1 of 2): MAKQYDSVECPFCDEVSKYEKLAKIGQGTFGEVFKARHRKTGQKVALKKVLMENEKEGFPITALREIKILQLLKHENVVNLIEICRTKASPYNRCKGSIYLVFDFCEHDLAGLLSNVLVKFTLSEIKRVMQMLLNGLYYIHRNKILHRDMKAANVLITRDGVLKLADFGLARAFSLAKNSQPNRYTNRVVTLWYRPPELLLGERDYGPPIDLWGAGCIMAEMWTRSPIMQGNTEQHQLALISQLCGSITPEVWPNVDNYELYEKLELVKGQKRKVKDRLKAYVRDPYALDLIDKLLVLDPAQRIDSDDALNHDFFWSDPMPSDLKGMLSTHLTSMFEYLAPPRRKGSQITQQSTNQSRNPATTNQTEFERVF
Sequence of CDK9/cyclin T1(h) (O60563 whole entry, chain 2 of 2): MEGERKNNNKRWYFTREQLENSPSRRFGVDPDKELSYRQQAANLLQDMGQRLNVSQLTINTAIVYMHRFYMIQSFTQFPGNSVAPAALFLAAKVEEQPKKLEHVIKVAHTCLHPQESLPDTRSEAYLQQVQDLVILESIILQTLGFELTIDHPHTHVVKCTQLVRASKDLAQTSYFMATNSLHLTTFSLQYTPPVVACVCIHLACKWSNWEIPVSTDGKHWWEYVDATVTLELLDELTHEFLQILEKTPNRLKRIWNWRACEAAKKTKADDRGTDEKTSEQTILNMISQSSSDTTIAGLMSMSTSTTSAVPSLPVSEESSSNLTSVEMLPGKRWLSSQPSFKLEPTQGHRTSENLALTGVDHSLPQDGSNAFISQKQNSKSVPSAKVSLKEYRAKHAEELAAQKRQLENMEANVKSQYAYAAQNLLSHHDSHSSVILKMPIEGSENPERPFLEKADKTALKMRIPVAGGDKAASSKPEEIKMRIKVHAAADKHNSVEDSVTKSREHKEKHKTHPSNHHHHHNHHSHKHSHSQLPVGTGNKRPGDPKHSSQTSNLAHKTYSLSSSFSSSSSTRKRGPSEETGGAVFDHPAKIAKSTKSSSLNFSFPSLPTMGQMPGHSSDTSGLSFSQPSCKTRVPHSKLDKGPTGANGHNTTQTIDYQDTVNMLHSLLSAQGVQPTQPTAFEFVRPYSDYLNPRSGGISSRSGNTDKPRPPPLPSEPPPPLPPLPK

eEF-2K(h) = molecular target: T5, eEF-2K(h) (human, UniProt O00418 1-725, limits assumed)
T5 sequence (looked up): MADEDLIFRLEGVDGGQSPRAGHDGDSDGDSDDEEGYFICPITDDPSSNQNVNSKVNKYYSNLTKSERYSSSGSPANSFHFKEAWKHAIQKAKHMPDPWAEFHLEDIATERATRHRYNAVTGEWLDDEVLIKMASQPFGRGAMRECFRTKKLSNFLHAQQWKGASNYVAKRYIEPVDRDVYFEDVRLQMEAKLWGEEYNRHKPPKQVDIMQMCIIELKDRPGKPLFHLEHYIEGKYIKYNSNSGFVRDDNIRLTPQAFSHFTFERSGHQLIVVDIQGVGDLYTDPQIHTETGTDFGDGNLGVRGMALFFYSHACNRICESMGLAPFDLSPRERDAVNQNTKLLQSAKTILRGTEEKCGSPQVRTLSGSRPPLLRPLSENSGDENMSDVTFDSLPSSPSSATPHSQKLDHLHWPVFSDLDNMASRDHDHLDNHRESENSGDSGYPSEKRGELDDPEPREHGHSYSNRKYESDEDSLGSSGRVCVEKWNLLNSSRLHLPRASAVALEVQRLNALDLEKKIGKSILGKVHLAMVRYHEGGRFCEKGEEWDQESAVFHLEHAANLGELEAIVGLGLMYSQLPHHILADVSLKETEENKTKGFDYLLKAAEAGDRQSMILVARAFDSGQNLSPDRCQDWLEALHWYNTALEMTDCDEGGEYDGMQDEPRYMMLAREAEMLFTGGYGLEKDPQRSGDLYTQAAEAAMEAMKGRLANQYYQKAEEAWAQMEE

Sequence of GRK6(h) (P43250 whole entry): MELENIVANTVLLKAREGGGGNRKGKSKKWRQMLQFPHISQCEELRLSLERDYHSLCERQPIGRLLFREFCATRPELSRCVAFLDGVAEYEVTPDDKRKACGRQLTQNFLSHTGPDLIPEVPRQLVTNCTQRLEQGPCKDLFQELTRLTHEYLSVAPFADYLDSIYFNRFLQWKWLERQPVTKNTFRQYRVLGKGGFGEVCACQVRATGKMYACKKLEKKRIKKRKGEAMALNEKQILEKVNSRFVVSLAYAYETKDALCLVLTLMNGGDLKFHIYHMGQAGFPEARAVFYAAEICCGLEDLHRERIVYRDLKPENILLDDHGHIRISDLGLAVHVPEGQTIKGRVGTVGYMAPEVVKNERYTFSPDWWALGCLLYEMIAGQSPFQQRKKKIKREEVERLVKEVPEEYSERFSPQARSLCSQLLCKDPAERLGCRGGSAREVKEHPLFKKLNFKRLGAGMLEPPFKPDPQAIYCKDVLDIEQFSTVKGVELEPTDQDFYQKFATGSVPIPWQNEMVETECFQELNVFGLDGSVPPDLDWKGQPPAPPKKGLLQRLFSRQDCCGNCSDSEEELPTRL

## KAFAKLAARLYRKALARQLGVAA [MMI-0400]
GRK6(h)
  % activity, 100 µM: 141%
MST2(h)
  % activity, 100 µM: 11%
MuSK(h)
  % activity, 100 µM: 93%
BrSK2(h)
  % activity, 100 µM: 86%
TSSK1(h)
  % activity, 100 µM: 79%
CDK9/cyclin T1(h)
  % activity, 100 µM: 235%
eEF-2K(h)
  % activity, 100 µM: 43%

## FAKLAARLYRKALARQLGVAA [MMI-0300]
GRK6(h)
  % activity, 100 µM: 147%
MST2(h)
  % activity, 100 µM: 19%
MuSK(h)
  % activity, 100 µM: 93%
BrSK2(h)
  % activity, 100 µM: 83%
TSSK1(h)
  % activity, 100 µM: 79%
CDK9/cyclin T1(h)
  % activity, 100 µM: 91%
eEF-2K(h)
  % activity, 100 µM: 91%
